Assay results published in the RNAGym collection of RNA variant scans (doi:10.7554/elife.80360).

B1: Twister Ribozyme (parent)
chain: AACACUGCCAAUGCCGGUCCCAAGCCCGGAUAAAAGUGGAGGGGGCGG

Variants of: B1
Experiment: self-cleavage, relative activity (ratio to wild type); higher = more cleavage; co-transcriptional
Variant A11C C27G has a self-cleavage of 0.0803. With C9U G17C the self-cleavage was 0.0426. Variant C9U G17U has a self-cleavage of 0.102. With A10U G29C the self-cleavage was 0.617. In the case of A10U G29A, the self-cleavage is reported as 1.08. For A10C A34G, the self-cleavage was 0.88. Variant A10C A34U has a self-cleavage of 0.951. For A10C A34C, the self-cleavage was 0.283. With A11C U12C the self-cleavage was 0.79. With A11C U12G the self-cleavage was 0.971. A11C U12A gave a self-cleavage of 0.907. Work on C9U C46U yielded a self-cleavage of 0.729. A10C G17U gave a self-cleavage of 0.408. Variant A10C G17A has a self-cleavage of 0.391. In the case of A10C G17C, the self-cleavage is reported as 0.125. Variant A10U C20G has a self-cleavage of 0.131. For A10U C20U, the self-cleavage was 0.948. A10U C20A gave a self-cleavage of 0.168. Work on A10C G28U yielded a self-cleavage of 0.811. In the case of A10G U12A, the self-cleavage is reported as 1.03. Work on A10G U12G yielded a self-cleavage of 1.07. C9U G47A gave a self-cleavage of 0.425. Work on C9U G47U yielded a self-cleavage of 0.269. Work on A10U C27A yielded a self-cleavage of 0.645. Work on A10U A34C yielded a self-cleavage of 0.279. Variant A10U A34G has a self-cleavage of 0.703. With A10U G36C the self-cleavage was 0.711. For A11G A30C, the self-cleavage was 0.861. C9U U12C showed a self-cleavage of 0.501. For A11G C27G, the self-cleavage was 0.0637. C9U A35U showed a self-cleavage of 0.767. Variant C9U G44A has a self-cleavage of 0.72. C9U G44U gave a self-cleavage of 0.595. Work on C9U G44C yielded a self-cleavage of 0.677. A11C A35C gave a self-cleavage of 0.886. A11C A35U showed a self-cleavage of 0.942. For A11C A35G, the self-cleavage was 0.574. Work on A10U G45C yielded a self-cleavage of 0.707. For A10G A34G, the self-cleavage was 0.888. For A11G C46U, the self-cleavage was 0.943. Variant C9U A34C has a self-cleavage of 0.131. Work on A10G C21U yielded a self-cleavage of 0.162. A10G A11U gave a self-cleavage of 1.09. A10G A11C showed a self-cleavage of 0.801. For A10U A30U, the self-cleavage was 0.922. For A10U A30C, the self-cleavage was 0.784. Work on A10U A30G yielded a self-cleavage of 0.915. A11G G24U showed a self-cleavage of 0.143. A10C U31A showed a self-cleavage of 0.776. For A10C U31C, the self-cleavage was 0.834. A10C G16U gave a self-cleavage of 0.677. With C9U G16A the self-cleavage was 0.405. Variant C9U G16U has a self-cleavage of 0.373. Variant C9U G42A has a self-cleavage of 0.153. For A11C G44A, the self-cleavage was 0.955. A11C G44C showed a self-cleavage of 0.889. Work on C9U G28U yielded a self-cleavage of 0.504. C9U G28A gave a self-cleavage of 0.562. Work on A10U G42C yielded a self-cleavage of 0.543. With A10U G42A the self-cleavage was 0.489. Work on A10G C19G yielded a self-cleavage of 0.677. With A11G C15G the self-cleavage was 0.0492. A11G C15U showed a self-cleavage of 0.912. In the case of A11G A33G, the self-cleavage is reported as 0.84. Work on A11G A33C yielded a self-cleavage of 0.836. Variant A11G G38U has a self-cleavage of 0.613. In the case of A11G G38A, the self-cleavage is reported as 0.824. With A11G G38C the self-cleavage was 0.683. For A10U C26A, the self-cleavage was 0.607. Work on A10U C26U yielded a self-cleavage of 0.437. A10U C26G showed a self-cleavage of 0.264. For A11C C14G, the self-cleavage was 0.164. A10U G17U showed a self-cleavage of 0.302. In the case of A11G C14G, the self-cleavage is reported as 0.133. Work on A11G C14A yielded a self-cleavage of 0.941. Work on A11G C14U yielded a self-cleavage of 0.943. In the case of A10C U18G, the self-cleavage is reported as 0.0601. Work on A10C U18A yielded a self-cleavage of 0.455. A10C C46A gave a self-cleavage of 0.898. A10C C46U gave a self-cleavage of 0.839. In the case of A10U A22G, the self-cleavage is reported as 0.291. For A10U A22U, the self-cleavage was 0.829. A11G A32C showed a self-cleavage of 0.925. Variant A11G A32G has a self-cleavage of 0.882. A11C G45A showed a self-cleavage of 0.938. In the case of A11C G45C, the self-cleavage is reported as 0.581. C9U C19U showed a self-cleavage of 0.226. With C9U C19A the self-cleavage was 0.0695. C9U C26G gave a self-cleavage of 0.0629. For C9U C26A, the self-cleavage was 0.0658. In the case of C9U C26U, the self-cleavage is reported as 0.086. Work on A10C A40C yielded a self-cleavage of 0.253. With C9U C21A the self-cleavage was 0.0683. A11G A23C showed a self-cleavage of 0.422. Variant A11G A23G has a self-cleavage of 0.447. In the case of A11C G29C, the self-cleavage is reported as 0.668. In the case of C9U U31A, the self-cleavage is reported as 0.667. Work on C9U U31C yielded a self-cleavage of 0.708. Variant A10G C46U has a self-cleavage of 1.02. A10U G13U showed a self-cleavage of 0.489. Work on A10C C20A yielded a self-cleavage of 0.199. Work on A10G G36A yielded a self-cleavage of 0.786. A10G G36C gave a self-cleavage of 0.855. Variant A10G G36U has a self-cleavage of 0.823. Work on A11G A22U yielded a self-cleavage of 0.66. A11G A22C gave a self-cleavage of 0.904. Variant A10C G36A has a self-cleavage of 0.794. Variant A10C G36U has a self-cleavage of 0.722. A11C C20A gave a self-cleavage of 0.129. In the case of A11C C19G, the self-cleavage is reported as 0.138. For A11C C19A, the self-cleavage was 0.136. Work on A10U G41C yielded a self-cleavage of 0.239. A10U G41U gave a self-cleavage of 0.61. Variant A10U G41A has a self-cleavage of 0.626. In the case of A10C A30U, the self-cleavage is reported as 1.11. With A10U G43U the self-cleavage was 0.501. Work on A10U G43C yielded a self-cleavage of 0.2. Variant A10U G43A has a self-cleavage of 0.373. For A10C C19A, the self-cleavage was 0.214. A10C C19U gave a self-cleavage of 0.802. A10G C14A gave a self-cleavage of 0.975. Work on A10G G29A yielded a self-cleavage of 1.09. Work on C9U G38U yielded a self-cleavage of 0.395. For A10U U31C, the self-cleavage was 0.919. A10U U31A gave a self-cleavage of 0.694. Work on A10C A32C yielded a self-cleavage of 0.821. Work on A10C G39A yielded a self-cleavage of 0.601. A10C G39C gave a self-cleavage of 0.172. A10G G42A gave a self-cleavage of 0.509. Variant A11C G47A has a self-cleavage of 0.836. Work on A11C G47C yielded a self-cleavage of 0.648. With A11C G47U the self-cleavage was 0.977. In the case of A10G G39C, the self-cleavage is reported as 0.119. A10G G39U showed a self-cleavage of 0.287. Work on A10U U12C yielded a self-cleavage of 0.931. A10U U12G showed a self-cleavage of 0.759. C9U G36C showed a self-cleavage of 0.12. A10C G42U showed a self-cleavage of 0.26. C9U G43U showed a self-cleavage of 0.126. Work on C9U G43A yielded a self-cleavage of 0.137. In the case of A11C C21G, the self-cleavage is reported as 0.118. For A11C C21A, the self-cleavage was 0.0812. For A11C C21U, the self-cleavage was 0.1. Work on A10G A33C yielded a self-cleavage of 1.03. Work on A10G A33U yielded a self-cleavage of 0.963. In the case of C9U C20U, the self-cleavage is reported as 0.264. Variant C9U C20A has a self-cleavage of 0.0526. Variant C9U C20G has a self-cleavage of 0.0672. In the case of A11C A34C, the self-cleavage is reported as 0.049. In the case of A11C A34U, the self-cleavage is reported as 0.785. With A10U C21U the self-cleavage was 0.0991. For A10U C21A, the self-cleavage was 0.175. A10U C21G gave a self-cleavage of 0.126. In the case of A11G G39C, the self-cleavage is reported as 0.119. A11G G39A showed a self-cleavage of 0.477. With A10G G38U the self-cleavage was 0.91. A10G G38C showed a self-cleavage of 0.93. With A10C G45C the self-cleavage was 0.661. With A10C G45A the self-cleavage was 0.881. In the case of A10G G16A, the self-cleavage is reported as 1.13. A10C U12A gave a self-cleavage of 1.24. In the case of A10C U12C, the self-cleavage is reported as 0.929. Variant A10U G38A has a self-cleavage of 1.04. A10U G38C gave a self-cleavage of 0.933. Variant A10G G41A has a self-cleavage of 0.748. A10G G41C showed a self-cleavage of 0.384. In the case of A10G G41U, the self-cleavage is reported as 0.781.
